According to PMC8791620 (Science Advances, 2022):

B2: Trs130 (subunit of TRAPPII) (natural protein, S. cerevisiae, UniProt Q03660 1-1102, looked up)
chain: MDKEIYCGSVPVSYFDPFDLFESLRPEFQQILPLDNIHWKAFDGTVRTVNRLPIELIPEGRGEADKSNDEQPFIRFLIVNCISIDQYRAKVRPLVRQWLPNLESVSSSTGEKMIYKPIILLYANSEVVDSNLFKSVSLMEKFGKDFPHVQTLEVRSVYRSPKERQEFWNQFSQKIKASVLSIFQKRLTHLQHSLANLQKGNNFEEQLLTREKLYELYVVFNILEDASLELQKIKKEILRRNMNMPDGKLQVPFESSSKSDESLGSIIIEGTLDKFQLHKYFFIRRLRLLKLEDQTLTAFVGAFQLIKNFIESISIEYRKSVRLLEFKHYFITSMLSYFEFENVSNPLLCEIKAELLMLKRDNWVQGVMATSGYRLMDKNYPNSDVKYKFDLLKETFVDETVFQENFLTLTKEILSLFNKCEGKRQRIVDILSIEIGLLYYQGKKYEEAVSLFLSCYEYYTQTNWNSIGLKILQVFIDSLSHCPKLDVLQIDGESVSASAVLTNAFLNILKLCKDNDSKEIWWKKFMDLQMKNNIHLMYPLDGLFEVTLNSKVHLARANVSAIEVNLKSYGFPEDISTKTMRLSLKNMGGDVIVFGASDFLLKKGENKLILECRDIMYGEFSLLSFEIIVEGITFVKEFPENQDEFIVVPEIYCKESTKVLVKQAHNLNLGEYALELKSVQSDALESLQVEVEVQKNIGNMKNLPVSFSMDEIQARKRYNTPFENVRLEYYLLDQITAFDLIIKTSFTKKNDQGTFGETKKVRIQCYLQLSVSVEDIFKKDIFFFKFLLNSSVREEPVILYSSELSAPDTRNDYNIRGDYIATTPALITFDGNESFINCYEITANNNFDSKDIFNLKVRYNTLKEQLDCFITDAVLIEGDVEWFILFEKWKTFWELEILKKLKYDYDAFKENRIIRLLKTSIDLNKTKSKIRNLCIEKAVLDKILICLNKVSRGIAVCNTDMDEYVRNLVPKQLTVPVQLPGFEQFFHVQFEQMETSHDALHDTIATIGNSLSYTVIVENLSGQWGQDVIDDGGYIFEILSSNEWLIHGQKRCAIKEKRKEFEVHLIPLKKGYLNFPRVEITNINGKSCRVDHSNAFESILIF

Legend:
Assay in all cases: cryo-EM structure
[1] = molecular target: T1, Trs120 (3xFLAG-tagged, subunit of TRAPPII) (S. cerevisiae, UniProt Q04183 1-1289)
T1 sequence: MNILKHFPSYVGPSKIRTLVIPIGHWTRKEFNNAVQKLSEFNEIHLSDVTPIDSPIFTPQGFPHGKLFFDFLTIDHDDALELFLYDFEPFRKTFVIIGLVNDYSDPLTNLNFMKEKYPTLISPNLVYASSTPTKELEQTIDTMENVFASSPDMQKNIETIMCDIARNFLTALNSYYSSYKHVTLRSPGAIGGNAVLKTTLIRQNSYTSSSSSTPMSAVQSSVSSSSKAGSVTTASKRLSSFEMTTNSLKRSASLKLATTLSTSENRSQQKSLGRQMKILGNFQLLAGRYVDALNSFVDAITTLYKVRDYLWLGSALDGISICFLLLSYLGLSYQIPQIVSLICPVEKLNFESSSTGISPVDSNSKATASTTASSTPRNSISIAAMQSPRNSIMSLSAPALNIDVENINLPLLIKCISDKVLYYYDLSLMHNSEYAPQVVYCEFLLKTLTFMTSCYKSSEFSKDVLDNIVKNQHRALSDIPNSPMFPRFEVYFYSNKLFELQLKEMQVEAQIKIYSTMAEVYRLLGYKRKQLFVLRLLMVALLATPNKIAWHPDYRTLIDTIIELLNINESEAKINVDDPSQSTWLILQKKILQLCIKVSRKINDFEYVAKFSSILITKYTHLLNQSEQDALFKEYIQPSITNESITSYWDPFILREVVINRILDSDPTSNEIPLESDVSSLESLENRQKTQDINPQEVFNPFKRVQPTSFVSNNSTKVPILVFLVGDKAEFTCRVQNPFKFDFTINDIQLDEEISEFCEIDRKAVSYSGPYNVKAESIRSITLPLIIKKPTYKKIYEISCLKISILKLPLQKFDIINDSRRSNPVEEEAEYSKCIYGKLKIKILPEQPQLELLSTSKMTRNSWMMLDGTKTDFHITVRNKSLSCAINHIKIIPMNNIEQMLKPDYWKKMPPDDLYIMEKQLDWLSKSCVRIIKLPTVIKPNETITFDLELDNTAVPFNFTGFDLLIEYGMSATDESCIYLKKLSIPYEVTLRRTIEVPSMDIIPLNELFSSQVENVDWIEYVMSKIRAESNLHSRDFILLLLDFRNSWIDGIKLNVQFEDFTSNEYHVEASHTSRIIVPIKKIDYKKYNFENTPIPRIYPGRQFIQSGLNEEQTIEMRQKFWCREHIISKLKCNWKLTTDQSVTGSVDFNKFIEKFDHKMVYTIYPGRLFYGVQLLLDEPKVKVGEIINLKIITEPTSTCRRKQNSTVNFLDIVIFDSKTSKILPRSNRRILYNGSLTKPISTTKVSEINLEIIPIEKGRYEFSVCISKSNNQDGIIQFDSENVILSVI

[2] = molecular target: T2, Trs31 (subunit of core TRAPP/TRAPPI in TRAPPII) (S. cerevisiae, UniProt Q03337 1-283)
T2 sequence (looked up): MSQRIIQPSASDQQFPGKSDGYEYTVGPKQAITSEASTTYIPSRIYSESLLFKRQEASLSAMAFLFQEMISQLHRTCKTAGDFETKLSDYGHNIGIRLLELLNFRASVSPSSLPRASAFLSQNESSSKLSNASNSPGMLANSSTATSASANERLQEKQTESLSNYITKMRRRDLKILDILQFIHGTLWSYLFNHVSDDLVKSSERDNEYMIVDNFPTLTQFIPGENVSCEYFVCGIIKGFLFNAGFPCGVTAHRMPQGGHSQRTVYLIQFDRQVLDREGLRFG

[3] = molecular target: B2
[4] = molecular target: T3, Trs33 (subunit of core TRAPP/TRAPPI in TRAPPII) (S. cerevisiae, UniProt Q99394 1-268)
T3 sequence (looked up): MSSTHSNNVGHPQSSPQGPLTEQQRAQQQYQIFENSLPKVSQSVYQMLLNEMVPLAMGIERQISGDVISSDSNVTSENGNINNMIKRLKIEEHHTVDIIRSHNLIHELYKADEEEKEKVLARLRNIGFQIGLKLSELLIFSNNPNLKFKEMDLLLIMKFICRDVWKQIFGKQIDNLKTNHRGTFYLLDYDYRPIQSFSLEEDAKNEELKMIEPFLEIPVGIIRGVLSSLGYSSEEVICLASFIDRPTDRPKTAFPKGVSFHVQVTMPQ

[5] = molecular target: T4, Trs23 (subunit of core TRAPP/TRAPPI in TRAPPII) (S. cerevisiae, UniProt Q03784 1-219)
T4 sequence (looked up): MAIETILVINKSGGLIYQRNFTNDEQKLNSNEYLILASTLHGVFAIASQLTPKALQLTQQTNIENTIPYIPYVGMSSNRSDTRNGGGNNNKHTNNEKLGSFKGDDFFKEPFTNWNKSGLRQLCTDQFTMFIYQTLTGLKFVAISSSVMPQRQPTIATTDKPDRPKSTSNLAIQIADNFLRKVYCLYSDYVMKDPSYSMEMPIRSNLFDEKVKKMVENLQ

B1: Trs20 (subunit of core TRAPP/TRAPPI in TRAPPII) (natural protein, S. cerevisiae, UniProt P38334 1-175, looked up)
chain: MPQYFAIIGKKDNPVYEIEFTNAENPQGFPQDLKELNPFILHASLDIVEDLQWQINPTSQLNGNGGNGSNGGGGFLRSRAVNNTDNCYLGKVDHFYGLAITAYISYSGMKFVMIHGNSANSSVVIDDNNMRSFYQEVHELYVKTLMNPFYKITDPIRSPAFDSRVRTLARKHLSK
- binding result [1]: binds
- binding result [2]: binds

Binder: B2
- binding result [1]: binds

B3: Tca17 (subunit of TRAPPII) (natural protein, S. cerevisiae, UniProt P32613 1-152, looked up)
chain: MSLRPCFVSLIDESDKPILIYVPNEAENEMNDVLKYNVLSNISLDYFESALVEWHSLDSKPLLKSIFQLEGVSVFAMLIKQTGLKIVIGFEQKSLSGADDEFEAINQIFETVRKIYIRVKCNPLLVSGDEKSIIKSLERKFDELFISTEVEL
- binding result [3]: binds
- binding result [4]: binds

B4: Trs65 (subunit of TRAPPII) (natural protein, S. cerevisiae, UniProt P32893 1-560, looked up)
chain: MECFVPLRCDLDGSNIEQLRQSHLSRKFIIFDEQLNLWLWFQGNSQENKRFVLQNMIILINEAQVTRTSTIDDYFTQVENNENLWRLKNDCCSKILFKSNVVMNNGYNNQIKFVFEYKSVDANFNNQDSLQDPQAKYTLDKYSSEEILPSFEPVYSWSSAATKSSKNTNNHLEKNNRATHRVSSKNSEVHEADVSRNPNTFTLKLQYPIFSLLNMRLRNISLKSEHCILSSLDFQTSKASEQLTKKFIYPQEHNSFLKLNFQEISYKLIDGTSQIELDPICPLKVPLTAFSYDSISATFKLVLLPKSTQPHRVKITLAYELELHPNLKLPVRTSWETEVTLKRSMPISSTSSQYSSNNNNTNHSASFNGAANNVNSGGLANLRLGGVSSSRFSLGAASTTSLVNSKLSNVKFKFINSNIKVIKGEKFTMRLQIINSSSSPLDLVVYYNNTINPIPSANNVRNSNGINNCGMNNGTIPNSPLTLENQYQLHNKYRKIAEGIILLSNDYKIPVVPPRETYFADLRFIGIMSGYYGTLSGLKVLDLNTNELIEVGNGASVLIQ
- binding result [1]: binds
- binding result [3]: binds

B5: Bet3 (subunit of core TRAPP/TRAPPI in TRAPPII) (natural protein, S. cerevisiae, UniProt P36149 1-193, looked up)
chain: MVSTTQSRSLKAMGEEIWKNKTEKINTELFTLTYGSIVAQLCQDYERDFNKVNDHLYSMGYNIGCRLIEDFLARTALPRCENLVKTSEVLSKCAFKIFLNITPNITNWSHNKDTFSLILDENPLADFVELPMDAMKSLWYSNILCGVLKGSLEMVQLDCDVWFVSDILRGDSQTEIKVKLNRILKDEIPIGED
- binding result [2]: binds
- binding result [4]: binds
- binding result [5]: binds
